From patent US20230382991A1
Values joined by “and” are separate entries in the source; they are usually repeats but may differ in a detail not shown here. Equal values may be shown once.

Tests used:
[1] = target: cynomolgus macaque LILRB1.2 expressed on stably transduced HEK293T cells (cynomolgus macaque)
[2] = target: cynomolgus macaque LILRB2.1 expressed on stably transduced HEK293T cells (cynomolgus macaque)
[3] = target: cynomolgus macaque LILRB4 expressed on stably transduced HEK293T cells (cynomolgus macaque)

For “cynomolgus macaque Mafa-A1*063 SIV gag GW9 (…)-APC tetramer (peptide-MHC)”, the % cells in the tetramer+ gate [1] was 51.7% and 53%, the % cells in the tetramer+ gate [2] was 73.5% and 71% and the % cells in the tetramer+ gate [3] was 0.13%.
